We go through nine molecules from paper PMC12415261 (Proceedings of the National Academy of Sciences of the …, 2025).

B1: Recombinant human BMP6 (mammalian expressed, glycosylated), P22004 375-513 (ligand)
chain: SASSRRRQQSRNRSTQSQDVARVSSASDYNSSELKTACRKHELYVSFQDLGWQDWIIAPKGYAANYCDGECSFPLNAHMNATNHAIVQTLVHLMNPEYVPKPCCAPTKLNAISVLYFDDNSNVILKKYRNMVVRACGCH
modifications: here or on the partner: N-linked glycosylation at Asn454 (prehelix loop)
B2: Recombinant human BMP6, mammalian expressed (glycosylated), P22004 375-513 (ligand)
chain: B1 chain
modifications: here or on the partner: N-linked glycosylation at Asn454 (prehelical loop)
B3: Deglycosylated BMP6 (BMP6 treated with PNGaseF) (ligand, human, UniProt P22004 375-513, looked up)
chain: B1 chain
modifications: glycosylation completely removed with PNGaseF
notes: mature domain of human BMP6; also called dgBMP6; source: bought: RnD (Cat. No. 507-BP), CHO; deglycosylated with rapid PNGase F (15 min at 50 °C)
B4: Deglycosylated BMP6 (BMP6 treated with PNGaseF) (ligand, human, UniProt P22004 375-513, looked up)
chain: B1 chain
notes: BMP6, human, mature domain of the precursor, N-linked glycosylation completely removed with PNGaseF; disulfide-linked dimer; Same protein as Dm1 after PNGaseF treatment; also called dgBMP6; PNGaseF treated BMP6; source: bought: RnD (Cat. No. 507-BP), produced from CHO cells; deglycosylated with rapid PNGase F (New England Biolabs), 15 min at 50 C
B5: Recombinant human BMP6 (mammalian expressed, glycosylated) (ligand, UniProt P22004 375-513, looked up)
chain: B1 chain
modifications: N-linked glycosylation at Asn454 (prehelix loop)
notes: BMP6, human, mature domain of the precursor (residues 410 to 513 resolved in the cryoEM maps, 82.3% of the mature domain); disulfide-linked dimer; also called Bone Morphogenetic Protein 6; source: bought: RnD (Cat. No. 507-BP), produced from CHO cells
B6: Recombinant human BMP6, mammalian expressed (glycosylated) (ligand, UniProt P22004 375-513, looked up)
chain: B1 chain
modifications: N-linked glycosylation at Asn454 (prehelical loop)
notes: mature domain of human BMP6; residues 410 to 513 resolved in the maps (82.3% of mature domain); Dimer held together by a cystine knot; also called glycosylated BMP6; source: bought: RnD (Cat. No. 507-BP), produced from CHO cells
B7: ActRIIB2-Fc (trap with two ActRIIB extracellular domains) (Fc fusion, human, UniProt Q13705-1 19-133, looked up)
chain: SGRGEAETRECIYYNANWELERTNQSGLERCEGEQDKRLHCYASWRNSSGTIELVKKGCWLDDFNCYDRQECVATEENPQVYFCCCEGNFCNERFTHLPEAGGPEVTYEPPPTAP
notes: signal peptide in the construct; ActRIIB (activin receptor type IIB), human, extracellular domain, residues 1 to 133, fused to an IgG1 Fc domain; The limits 1 to 133 are told for the ActRIIB-Fc fusions of this study in general; not shown: Fc (IgG1), C-terminal, kept
B8: ActRIIB2-Fc (Fc fusion, human, UniProt Q13705-1 19-133, looked up)
chain: B7 chain
notes: signal peptide in the construct; extracellular domain of human ActRIIB, residues 1 to 133; also called trap containing two ActRIIB ECDs; source: CHO cells, purified, as previously described (17, 19); not shown: Fc (IgG1), C-terminal, kept
B9: ActRIIB1-Fc (trap with a single ActRIIB extracellular domain) (Fc fusion)
chain: B7 chain
modifications: Printed range is 1-133; signal peptide 1-18 is removed. The deposited 9N4K/9MIR chains run to T134 before the linker. Human IgG1 Fc carrier is left out; the second Fc arm carries no receptor. …

Test [1] deals with ActRIIB1-Fc (trap with a single ActRIIB extracellular domain) (human). As to the kind of experiment: SPR; Cytiva T-200; trap captured through its Fc on a CM4 chip with immobilised goat antihuman Fc-specific IgG (about 3,000 RU); ligand flowed, five-step twofold dilution from 5 nM; 10 mM HEPES pH 7.4, 350 mM NaCl, 3.4 mM EDTA, 0.005% P-20; 25 C; 300 s association and dissociation, 30 uL/min; 1:1 fit with mass transport limitation; triplicate. A general note: SPR reads the build-up and loss of mass on a sensor chip optically.

The next test has as its target ActRIIB1-Fc (human). As to the kind of experiment: SPR; traps captured by goat antihuman Fc IgG on a CM4 chip; ligand flowed, five-step twofold dilution from 5 nM; HBS-EP+ (10 mM HEPES pH 7.4, 350 mM NaCl, 3.4 mM EDTA, 0.005% P-20), 25 °C; 1:1 fit with mass transport limitation.
The target of a further test is T1, ALK2-ActRIIB-Fc (human, UniProt Q04771 21-123; Q13705 19-133).
T1 construct: signal peptide in the construct; extracellular domain of human ActRIIB, residues 1 to 133; also called heterodimeric trap; ActRIIB-ALK2; source: CHO cells, cotransfected, purified (MabSelect SuRe protein A with pH gradient, SEC); not shown: Fc (IgG1), C-terminal, kept; copies: 1 + 1
T1 sequence (Q04771 21-123, one chain of several): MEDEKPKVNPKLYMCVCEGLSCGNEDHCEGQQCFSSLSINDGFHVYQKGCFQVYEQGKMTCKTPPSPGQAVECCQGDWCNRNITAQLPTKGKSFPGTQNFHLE
The description is as above. To be noted: both partners purified.

In another test the target is T2, ALK3-ActRIIB-Fc (human, UniProt P36894 24-152; Q13705 19-133).
T2 construct: signal peptide in the construct; extracellular domain of human ActRIIB, residues 1 to 133; also called heterodimeric trap; ActRIIB-ALK3; source: CHO cells, cotransfected, purified (MabSelect SuRe protein A, SEC); not shown: Fc (IgG1), C-terminal, kept; copies: 1 + 1
T2 sequence (P36894 24-152, one chain of several): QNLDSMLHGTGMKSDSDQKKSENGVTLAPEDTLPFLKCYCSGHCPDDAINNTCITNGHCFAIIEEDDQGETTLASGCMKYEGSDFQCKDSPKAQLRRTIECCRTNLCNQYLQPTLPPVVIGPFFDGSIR
The test is described as above. To be noted: both partners purified.

Test [2] concerns the target T3, ALK2-ActRIIB-Fc (heterodimeric trap) (human, UniProt Q04771 21-123; Q13705 19-133).
T3 construct: signal peptide in the construct; ActRIIB, human, extracellular domain, residues 1 to 133, fused to an IgG1 Fc domain; also called ALK2-IIB-Fc; ActRIIB-ALK2; source: SEC Superdex 200 increase; not shown: Fc (IgG1), C-terminal, kept; copies: 1 + 1
As to the kind of experiment: SPR; Cytiva T-200; trap captured through its Fc on a CM4 chip with immobilised goat antihuman Fc-specific IgG (about 3,000 RU); ligand flowed, five-step twofold dilution from 5 nM; 10 mM HEPES pH 7.4, 350 mM NaCl, 3.4 mM EDTA, 0.005% P-20; 25 C; 300 s association and dissociation, 30 uL/min; 1:1 fit with mass transport limitation; triplicate. To be noted: both partners purified.

Test [3] has as its target T4, ALK3-ActRIIB-Fc (heterodimeric trap) (human, UniProt P36894 24-152; Q13705 19-133).
T4 construct: signal peptide in the construct; ActRIIB, human, extracellular domain, residues 1 to 133, fused to an IgG1 Fc domain; also called ALK3-IIB-Fc; ActRIIB-ALK3; source: SEC Superdex 200 increase; not shown: Fc (IgG1), C-terminal, kept; copies: 1 + 1
The test is described as above. The conditions noted are these: both partners purified.

For test [4], the target named is B4. The description is as above. To be noted: both partners purified.
Test [5] deals with B5. The test is described as above. To be noted: both partners purified.
Test [6] concerns the target B6. Put plainly: SPR; traps captured by goat antihuman Fc IgG on a CM4 chip; ligand flowed, five-step twofold dilution from 5 nM; HBS-EP+ (10 mM HEPES pH 7.4, 350 mM NaCl, 3.4 mM EDTA, 0.005% P-20), 25 °C; 1:1 fit with mass transport limitation. The conditions noted are these: both partners purified.

T3 sequence (Q04771 21-123, one chain of several): as the sequence (Q04771 21-123, one chain of several) above
T4 sequence (P36894 24-152, one chain of several): as the sequence (P36894 24-152, one chain of several) above

As usually defined, the koff is the rate constant with which the complex falls apart. By kon is commonly meant a measure of how fast the partners come together. In test [1], B1 had a koff of 0.00234 s⁻¹ and a kon of 2.16e+07 M⁻¹ s⁻¹.

By Kd is commonly meant the constant that tells how readily two partners part at equilibrium. Take B2: the Kd with ActRIIB1-Fc (human) came out at 0.108 nM.

As to B3, the figures for the Kd with ALK2-ActRIIB-Fc and with ALK3-ActRIIB-Fc were 0.127 nM and 0.0351 nM, respectively.

On to B4, for which, in test [2], the koff amounted to 0.00147 s⁻¹ and the kon worked out at 1.16e+07 M⁻¹ s⁻¹. In test [3], this molecule had a koff of 0.000432 s⁻¹ and a kon of 1.23e+07 M⁻¹ s⁻¹.

Regarding B5, the koff in test [2] came out at 0.000528 s⁻¹; in [3] it was 0.000423 s⁻¹. The kon in test [2] is 1.43e+07 M⁻¹ s⁻¹; in [3] it was 1.39e+07 M⁻¹ s⁻¹.

As to B6, the figures for the Kd with ALK2-ActRIIB-Fc and with ALK3-ActRIIB-Fc were 0.0366 nM and 0.03 nM, respectively.

In [4], B7 registered a Kd of 0.0489 ± 0.006 nM, a koff of 0.00152 s⁻¹ and a kon of 3.12e+07 M⁻¹ s⁻¹. In test [5], the koff is 0.00119 s⁻¹ and the kon came to 3.17e+07 M⁻¹ s⁻¹.

For B8, in test [6], the Kd is 0.0421 nM.

In [4], B9 displayed a Kd of 0.11 ± 0.0148 nM, a koff of 0.00186 s⁻¹ and a kon of 1.7e+07 M⁻¹ s⁻¹.
